{
  "source": "paper PMC4718636",
  "about": "“Recombinant hTRBP and hPACT Modulate hAgo2-Catalyzed siRNA-Mediated Target RNA Cleavage In Vitro” (PLoS ONE, 2016)",
  "biological_target": "T1, GST-hAgo2 (human Argonaute2) (human, UniProt Q9UKV8 1-859)",
  "T1 construct": "human Argonaute2 (hAgo2); In the cleavage assays hAgo2 stood with siRNA (hAgo2/siRNA complex); also called wt-hAgo2; hArgonaute2; source: expressed and purified as previously described [27]",
  "T1 sequence (Q9UKV8 whole entry)": "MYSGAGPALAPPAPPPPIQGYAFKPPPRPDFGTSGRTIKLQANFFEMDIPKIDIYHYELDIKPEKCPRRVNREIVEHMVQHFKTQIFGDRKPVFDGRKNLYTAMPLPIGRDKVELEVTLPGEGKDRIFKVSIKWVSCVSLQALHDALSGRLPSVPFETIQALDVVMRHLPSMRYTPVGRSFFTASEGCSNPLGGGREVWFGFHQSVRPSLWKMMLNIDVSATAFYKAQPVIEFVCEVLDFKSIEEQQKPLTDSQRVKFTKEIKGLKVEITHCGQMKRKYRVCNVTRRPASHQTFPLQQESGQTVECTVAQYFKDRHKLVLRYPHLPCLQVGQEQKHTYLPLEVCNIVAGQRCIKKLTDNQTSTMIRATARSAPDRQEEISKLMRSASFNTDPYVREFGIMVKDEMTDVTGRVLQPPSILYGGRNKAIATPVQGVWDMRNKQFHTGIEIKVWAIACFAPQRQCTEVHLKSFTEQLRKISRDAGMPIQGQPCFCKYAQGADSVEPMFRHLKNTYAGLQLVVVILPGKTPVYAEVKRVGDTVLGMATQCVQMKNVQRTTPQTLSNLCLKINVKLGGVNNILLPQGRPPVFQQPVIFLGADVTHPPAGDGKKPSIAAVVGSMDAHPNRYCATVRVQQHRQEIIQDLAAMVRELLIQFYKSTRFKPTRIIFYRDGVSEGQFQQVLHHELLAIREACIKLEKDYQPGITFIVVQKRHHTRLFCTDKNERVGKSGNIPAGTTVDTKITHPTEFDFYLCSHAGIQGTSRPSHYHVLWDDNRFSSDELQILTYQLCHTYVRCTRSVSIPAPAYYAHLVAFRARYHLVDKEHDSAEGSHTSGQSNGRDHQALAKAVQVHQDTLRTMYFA",
  "assay": "pull-down; pulldown assays shown only in Figure I of the S1 Supporting Information File; format not given",
  "conditions": "both partners purified",
  "data": [
    {"binder": "His-hPACT (human protein activator of protein kinase R), purified under native conditions (natural protein, UniProt O75569 1-313, looked up, No removal of the His tag is described; also called hPACT^nat; source: E. coli BL21 (DE3), purified under native conditions (Talon Superflow)) MSQSRHRAEAPPLEREDSGTFSLGKMITAKPGKTPIQVLHEYGMKTKNIPVYECERSDVQIHVPTFTFRVTVGDITCTGEGTSKKLAKHRAAEAAINILKANASICFAVPDPLMPDPSKQPKNQLNPIGSLQELAIHHGWRLPEYTLSQEGGPAHKREYTTICRLESFMETGKGASKKQAKRNAAEKFLAKFSNISPENHISLTNVVGHSLGCTWHSLRNSPGEKINLLKRSLLSIPNTDYIQLLSEIAKEQGFNITYLDIDELSANGQYQCLAELSTSPITVCHGSGISCGNAQSDAAHNALQYLKIIAERK", "values": [
      {"measurement": "binding result", "value": "binds"}
    ]}
  ]
}
